Data taken from article doi:10.1101/2022.11.03.515015.
Values joined by “and” are separate entries in the source; they are usually repeats but may differ in a detail not shown here. Identical values can stand only once.

Assays:
Settings in all cases: remark: other sources report otherwise
[1] = molecular target: full-length human UBR5 (construct for single-particle analysis: 10xHis, 3C site, UBR5, double strep tag) (human) (UniProt O95071); experiment: mass photometry
[2] = molecular target: full-length human UBR5 (construct for single-particle analysis: 10xHis, 3C site, UBR5, double strep tag) (human) (UniProt O95071); experiment: mass photometry; remark: listed apart in the source
[3] = molecular target: full-length human UBR5 (construct for single-particle analysis: 10xHis, 3C site, UBR5, double strep tag) (human) (UniProt O95071); experiment: cryo-EM structure

full-length human UBR5 (construct for single-particle analysis: 10xHis, 3C site, UBR5, double strep tag), O95071 1-2799
stoichiometry N [1]: 2
stoichiometry N [2]: 4
stoichiometry N [3]: 4 and 2
